The target of assay [1] is T1, human Axl extracellular domain conjugated to an IgG Fc domain (human, UniProt P30530 26-451).
T1 construct: extracellular domain; also called hAxl; human Ax1; not shown: IgG Fc domain
T1 sequence (looked up): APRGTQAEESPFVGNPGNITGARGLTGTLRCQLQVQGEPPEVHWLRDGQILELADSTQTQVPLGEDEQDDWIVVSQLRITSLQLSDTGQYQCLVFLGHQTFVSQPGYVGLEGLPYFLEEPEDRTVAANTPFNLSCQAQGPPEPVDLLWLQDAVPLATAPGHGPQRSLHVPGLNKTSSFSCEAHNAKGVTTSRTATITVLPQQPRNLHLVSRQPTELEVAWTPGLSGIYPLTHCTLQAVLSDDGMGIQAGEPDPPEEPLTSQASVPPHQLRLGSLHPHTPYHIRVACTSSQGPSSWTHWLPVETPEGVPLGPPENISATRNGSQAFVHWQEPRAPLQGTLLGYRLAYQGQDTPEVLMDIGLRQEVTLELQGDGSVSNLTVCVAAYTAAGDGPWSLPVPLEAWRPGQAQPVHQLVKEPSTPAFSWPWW
The assay is described as follows: competition ELISA: soluble hAxl-Fc (varied) equilibrated with z10, free z10 caught on plate-coated hMER. How it is done: (§1) Plates were washed three times with PBS 0.1% Tween and blocked with 3% non-fat dry skim milk in PBS for 2 h.
(§2) During the saturation step, dilutions of the antigen hAxl (RnD Systems, 154-AL-100), hTyro3 (RnD Systems, 859-DK-100) or mMER (RnD Systems, 591-MR-100)] were prepared at 50 nM as the highest concentration, and serially diluted 1:1 to 0.098 nM in PBS. […] Then, the saturated plate was washed three times with PBS 0.1% Tween and the antigen-antibody mixture was added to the wells in duplicate and incubated for 1 h at room temperature. The plate was then washed three times with PBS 0.1% Tween and incubated with anti-human Alkaline Phosphatase antibody (Sigma, SAB 3701248) at a dilution of 1:3000 in PBS for 1 h at room temperature. After washing three times with PBS 0.1% Tween, 100 uL of Alkaline Phosphatase Yellow (pNPP) liquid substrate system (Sigma, P7998) was added in each well and incubated for 70 min at room temperature. Plates were read at 405 nm and at 570 nm, to correct plate inconsistencies, using Glomax Discover System from Promega The absorbance was plotted as a function of antigen concentration and the Kd was calculated using GraphPad Prism 7.0c.
Background: ELISA stands for enzyme-linked immunosorbent assay.

Assay [2] has as its target T2, extracellular MERTK domain (W3725-hPro1, Sino Biological, 10298-HCCH) (human, UniProt Q12866 21-505).
T2 construct: extracellular domain; also called human extracellular MERTK
T2 sequence (looked up): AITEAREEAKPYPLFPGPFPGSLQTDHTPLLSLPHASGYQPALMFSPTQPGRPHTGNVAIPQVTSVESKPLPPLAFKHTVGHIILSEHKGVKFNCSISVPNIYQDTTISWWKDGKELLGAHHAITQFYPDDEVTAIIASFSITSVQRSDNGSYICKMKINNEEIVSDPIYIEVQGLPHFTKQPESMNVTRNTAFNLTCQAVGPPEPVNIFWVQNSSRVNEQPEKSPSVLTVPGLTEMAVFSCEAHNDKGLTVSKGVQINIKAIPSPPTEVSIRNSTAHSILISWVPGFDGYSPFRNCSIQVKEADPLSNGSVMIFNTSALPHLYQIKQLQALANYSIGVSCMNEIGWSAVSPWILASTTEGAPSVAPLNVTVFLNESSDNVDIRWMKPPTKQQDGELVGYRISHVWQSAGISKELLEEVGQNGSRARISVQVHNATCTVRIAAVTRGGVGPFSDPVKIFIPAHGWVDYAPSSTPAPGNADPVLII
As to the kind of experiment: SPR, affinity format: z10 captured by anti-human Fc on CM5 chip, extracellular MERTK domain as analyte, 1:1 fit; Affinity, SPR. The method, then:
A CM5 sensor chip was activated for 420 s with a mixture of 400 mM EDC and 100 mM NHS. […] The chip was deactivated by 1 M ethanolamine-HCl. […] 10 mM glycine pH 1.5 as regeneration buffer was injected following every dissociation phase. The chip was regenerated with 10 mM glycine pH 1.5. One surface channel (without captured ligand) was used as control surface for reference subtraction. Final data of each interaction was deducted from reference channel and buffer channel data. […] A molecular weight of 54 kDa was used to calculate the molar concentration of the analyte.
In general terms: In SPR one partner is held on a chip, and binding of the other changes the refractive index at the surface.

Assay [3] addresses T3, human Tyro3 extracellular domain (human, UniProt Q06418 41-429).
T3 construct: extracellular domain; also called hTyro3
T3 sequence (looked up): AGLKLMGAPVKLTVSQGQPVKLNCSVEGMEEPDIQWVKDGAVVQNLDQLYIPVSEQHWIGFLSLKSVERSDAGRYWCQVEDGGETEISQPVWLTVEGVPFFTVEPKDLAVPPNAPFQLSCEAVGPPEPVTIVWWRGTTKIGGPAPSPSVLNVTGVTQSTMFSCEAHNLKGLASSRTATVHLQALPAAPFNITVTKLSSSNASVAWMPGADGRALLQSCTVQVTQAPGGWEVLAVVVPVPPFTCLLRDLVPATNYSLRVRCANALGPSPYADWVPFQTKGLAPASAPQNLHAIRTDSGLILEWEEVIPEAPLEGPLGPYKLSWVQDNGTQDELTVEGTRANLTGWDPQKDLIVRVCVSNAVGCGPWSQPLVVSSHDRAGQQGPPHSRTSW
The assay is described as follows: competition ELISA: soluble hTyro3-Fc (varied) equilibrated with z10, free z10 caught on plate-coated hMER. How it is done: as §1, §2

Assay [4] concerns the target T4, murine MERTK extracellular domain conjugated to an IgG Fc domain (murine, UniProt Q60805 19-497).
T4 construct: extracellular domain; also called mMER; not shown: IgG Fc domain
T4 sequence (looked up): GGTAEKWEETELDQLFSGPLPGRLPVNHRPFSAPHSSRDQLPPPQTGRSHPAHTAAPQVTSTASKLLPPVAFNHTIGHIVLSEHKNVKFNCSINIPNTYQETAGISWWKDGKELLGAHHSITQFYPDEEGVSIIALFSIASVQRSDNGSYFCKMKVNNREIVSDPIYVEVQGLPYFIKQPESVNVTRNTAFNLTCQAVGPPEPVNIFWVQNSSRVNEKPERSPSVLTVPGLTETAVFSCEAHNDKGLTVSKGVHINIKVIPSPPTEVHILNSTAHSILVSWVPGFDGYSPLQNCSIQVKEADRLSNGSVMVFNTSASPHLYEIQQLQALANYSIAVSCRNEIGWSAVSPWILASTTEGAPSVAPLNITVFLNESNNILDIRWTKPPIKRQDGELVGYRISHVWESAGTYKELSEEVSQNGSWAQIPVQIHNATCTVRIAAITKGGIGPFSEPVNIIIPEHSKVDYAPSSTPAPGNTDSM
As to the kind of experiment: competition ELISA: soluble mMer-Fc (varied) equilibrated with z10, free z10 caught on plate-coated hMER. How it is done: as §1, §2

B1: z10 antibody (antibody, human IgG1, kappa, V domains shown)
VH: QVQLVQSGAEVKKPGASVKVSCKASGYTFTNYGMNWVRQAPGQGLEWMGWINTYTGEPTYADDFKGRVTFTTDTSTSTAYMELRSLRSDDMAVYYCARKSTVVSRYFDVWGQGTTVTVSS
VL: DIQMTQSPSFLSASVGDRVTITCKASQDVGDAVTWYQQKPGKAPKLLIYWASTRHTGVPDRFSGSGSGTDFTLTISSLQPEDFATYYCQQYRSYPLTFGQGTKLEIKR
notes: also called MERTK (z10) antibody
One may read the Kd as a measure of binding affinity in units of concentration. High values mean lower affinity, low ones higher affinity. Turning to B1, the binding result in assay [1], in assay [3] and in assay [4] was “no binding (tested: 50 nM)” throughout. In assay [2], binding was put at a Kd of 3 nM.

For the origin of these results see patent publication US20200291135A1 (INSPIRNA, published 2020).
